In US20160138094:

Key:
[1] = system: TALE_037 (TALE_97 with RVD N* opposite C6) repeat 5 RVD HD to N* (position 13 deleted) (Xanthomonas axonopodis pv. citri (engineered)); test: inhibition
[2] = system: TALE_038 (TALE_97 with RVD NG opposite C6) repeat 5 RVD HD to NG (Xanthomonas axonopodis pv. citri (engineered)); test: inhibition
[3] = 5mC at target position 6, inhibition of Klenow exo- primer extension, MgCl2, room temperature
[4] = inhibition of Klenow exo- primer extension, MgCl2, room temperature

TGGATTCCCACTCTTCAGCCCCAGCGTTACAGCATCTTCAGTGGCTTCTTCCACCGTGAGCTCTTCCGTTTCCACATCC / GGATGTGGAAACGGAAGA [t97_C6mC / p97_rev]
IC50 [1, 3]: 51 nM | IC50 [2, 3]: 163 nM

TGGATTCCCACTCTTCAGCCCCAGCGTTACAGCATCTTCAGTGGCTTCTTCCACCGTGAGCTCTTCCGTTTCCACATCC / GGATGTGGAAACGGAAGA [t97_C6hmC / p97_rev]
IC50 ([1]; 5hmC at target position 6, reduction of primer extension to 50% at about this TALE concentration): 1500 nM | IC50 ([2]; 5hmC at target position 6, reduction of primer extension to 50%, estimated): 2000 nM

TGGATTCCCACTCTTCAGCCCCAGCGTTACAGCATCTTCAGTGGCTTCTTCCACCGTGAGCTCTTCCGTTTCCACATCC / GGATGTGGAAACGGAAGA [t97 template / p97_rev primer]
IC50 [1, 4]: 60 nM | IC50 [2, 4]: 357 nM
